Measurements published in PMC8484680.

Tests used:
[1] = molecular target: PsFucS1, fucoidan active sulfatase (subfamily S1_13) from Pseudoalteromonas sp. MB47 (Pseudoalteromonas sp. MB47); assay: SEC; analytical SEC, HiLoad 16/600 Superdex 200 pg, room temperature, 200 µl of His-tagged PsFucS1 at 6 mg/ml, 50 mM Tris-HCl pH 8.0, 100 mM NaCl; calibrated with standards of 13.7-440 kDa
[2] = molecular target: PsFucS1, fucoidan active sulfatase (subfamily S1_13) from Pseudoalteromonas sp. MB47 (Pseudoalteromonas sp. MB47); assay: crystal structure; X-ray, 2.50 Å, space group P212121, six molecules in the asymmetric unit; crystals grown at 20 °C in 0.1 M sodium acetate pH 4.6, 0.1 M NaCl, 20% PEG 3350; interfaces analysed with PISA

PsFucS1, fucoidan active sulfatase (subfamily S1_13) from Pseudoalteromonas sp. MB47 (enzyme)
stoichiometry N [1]: 6 | stoichiometry N [2]: 6
